This note sets out measurements from paper PMC12416549 (2024).

The chains are these.
T1: TNFR1 (Homo sapiens, UniProt P19438)
T1 chain: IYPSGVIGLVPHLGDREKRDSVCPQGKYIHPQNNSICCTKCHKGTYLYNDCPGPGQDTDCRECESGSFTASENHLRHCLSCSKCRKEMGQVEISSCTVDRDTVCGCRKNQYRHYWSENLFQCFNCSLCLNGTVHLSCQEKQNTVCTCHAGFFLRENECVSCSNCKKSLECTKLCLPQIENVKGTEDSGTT

B1: L99W (designed binder)
chain: SMEEEVEKAAKEYEKKKKEAIEKHLEKLKAKDKEAAERFLKELEEAAKEYAKDEAKTMSEEEAKRRAKKYKEKVLLSELSEEEQKEIKEAEEKLVRTIWKYVEEAAK
B2: Y50I (designed binder)
chain: B1 chain with Y50I, W99L
B3: A35V (designed binder)
chain: B1 chain with A35V, W99L
B4: E5R (designed binder)
chain: B1 chain with E5R, W99L
B5: K15F (designed binder)
chain: B1 chain with K15F, W99L
B6: Y50H (designed binder)
chain: B1 chain with Y50H, W99L
B7: A55T (designed binder)
chain: B1 chain with A55T, W99L
B8: E81T (designed binder)
chain: B1 chain with E81T, W99L
B9: E81K (designed binder)
chain: B1 chain with E81K, W99L
B10: E91V (designed binder)
chain: B1 chain with E91V, W99L
B11: K17E (designed binder)
chain: B1 chain with K17E, W99L
B12: E14T (designed binder)
chain: B1 chain with E14T, W99L
B13: K64F (designed binder)
chain: B1 chain with K64F, W99L
B14: A46D (designed binder)
chain: B1 chain with A46D, W99L
B15: A106H (designed binder)
chain: B1 chain with W99L, A106H
B16: K73N (designed binder)
chain: B1 chain with K73N, W99L
B17: S59E (designed binder)
chain: B1 chain with S59E, W99L
B18: Y70W (designed binder)
chain: B1 chain with Y70W, W99L
B19: Y70N (designed binder)
chain: B1 chain with Y70N, W99L
B20: R66C (designed binder)
chain: B1 chain with R66C, W99L
B21: A46F (designed binder)
chain: B1 chain with A46F, W99L
B22: K23Q (designed binder)
chain: B1 chain with K23Q, W99L
B23: E60D (designed binder)
chain: B1 chain with E60D, W99L
B24: T57I (designed binder)
chain: B1 chain with T57I, W99L
B25: K69V (designed binder)
chain: B1 chain with K69V, W99L
B26: K29V (designed binder)
chain: B1 chain with K29V, W99L
B27: D53G (designed binder)
chain: B1 chain with D53G, W99L
B28: L99D (designed binder)
chain: B1 chain with W99D
B29: E104H (designed binder)
chain: B1 chain with W99L, E104H
B30: E62D (designed binder)
chain: B1 chain with E62D, W99L
B31: L40P (designed binder)
chain: B1 chain with L40P, W99L
B32: E4V (designed binder)
chain: B1 chain with E4V, W99L
B33: K33F (designed binder)
chain: B1 chain with K33F, W99L
B34: A51K (designed binder)
chain: B1 chain with A51K, W99L
B35: E81N (designed binder)
chain: B1 chain with E81N, W99L
B36: K107V (designed binder)
chain: B1 chain with W99L, K107V
B37: E37V (designed binder)
chain: B1 chain with E37V, W99L
B38: K56D (designed binder)
chain: B1 chain with K56D, W99L
B39: E86N (designed binder)
chain: B1 chain with E86N, W99L
B40: E37K (designed binder)
chain: B1 chain with E37K, W99L
B41: Y50K (designed binder)
chain: B1 chain with Y50K, W99L
B42: K27I (designed binder)
chain: B1 chain with K27I, W99L
B43: K88M (designed binder)
chain: B1 chain with K88M, W99L
B44: K23F (designed binder)
chain: B1 chain with K23F, W99L
B45: K15M (designed binder)
chain: B1 chain with K15M, W99L
B46: E81G (designed binder)
chain: B1 chain with E81G, W99L
B47: Q84K (designed binder)
chain: B1 chain with Q84K, W99L
B48: K88T (designed binder)
chain: B1 chain with K88T, W99L
B49: E42K (designed binder)
chain: B1 chain with E42K, W99L
B50: A20R (designed binder)
chain: B1 chain with A20R, W99L
B51: I87K (designed binder)
chain: B1 chain with I87K, W99L
B52: K64D (designed binder)
chain: B1 chain with K64D, W99L
B53: K68V (designed binder)
chain: B1 chain with K68V, W99L
B54: K31S (designed binder)
chain: B1 chain with K31S, W99L
B55: E7H (designed binder)
chain: B1 chain with E7H, W99L

Where a chain is given by its changes, count along the chain named. Names may count otherwise.

For this assay, the target named is T1, TNFR1. As to the kind of experiment: yeast display SC50.
In the case of B1, the “apparent Kd (screen)” value was determined as 11.4 nM.
Consider B2, for which the “apparent Kd (screen)” value worked out at 0.0802 nM.
On to B3, for which the “apparent Kd (screen)” value stood at 0.653 nM.
With B4, the “apparent Kd (screen)” value came out at 0.446 nM.
On to B5, for which the “apparent Kd (screen)” value is 0.446 nM.
The figure for B6 is 13.8 nM.
For B7, the “apparent Kd (screen)” value turned out to be 10.4 nM.
Consider B8, for which the “apparent Kd (screen)” value worked out at 0.718 nM.
Consider B9, for which the “apparent Kd (screen)” value was 0.593 nM.
Consider B10, for which the “apparent Kd (screen)” value is 7.07 nM.
Next, B11: 1.05 nM.
Consider B12, for which the “apparent Kd (screen)” value worked out at 11.4 nM.
The figure for B13 is 0.49 nM.
Turning to B14, the “apparent Kd (screen)” value amounted to 2.73 nM.
Turning to B15, the “apparent Kd (screen)” value was found to be 1.54 nM.
The figure for B16 is 13.8 nM; for B17 it is 0.956 nM; for B18 it is 8.56 nM.
The figure for B19 is 8.56 nM; for B20 it is 5.84 nM.
In the case of B21, the “apparent Kd (screen)” value is 16.7 nM.
As to B22, the “apparent Kd (screen)” value worked out at 0.446 nM.
With B23, the “apparent Kd (screen)” value came out at 1.27 nM.
In the case of B24, the “apparent Kd (screen)” value came out at 0.49 nM.
Consider B25, for which the “apparent Kd (screen)” value stood at 0.49 nM.
Next, B26: 0.869 nM.
In the case of B27, the “apparent Kd (screen)” value is 12.5 nM.
For the molecule B28, the “apparent Kd (screen)” value turned out to be 11.4 nM.
As for B29, the “apparent Kd (screen)” value stood at 0.446 nM.
On to B30, for which the “apparent Kd (screen)” value stood at 0.446 nM.
Take B31: the “apparent Kd (screen)” value turned out to be 10.4 nM.
B32: the “apparent Kd (screen)” value was found to be 1.05 nM.
The figure for B33 is 0.49 nM; for B34 it is 0.49 nM.
Next, B35: 0.49 nM.
As for B36, the “apparent Kd (screen)” value was 2.05 nM.
B37: the “apparent Kd (screen)” value amounted to 0.539 nM.
Next, B38: 7.78 nM; B39: 0.653 nM; B40: 0.49 nM.
Next, B41: 3.99 nM.
B42: the “apparent Kd (screen)” value is 1.05 nM.
The figure for B43 is 0.446 nM; for B44 it is 0.79 nM.
Regarding B45, the “apparent Kd (screen)” value came to 0.539 nM.
Take B46: the “apparent Kd (screen)” value amounted to 1.16 nM.
B47: the “apparent Kd (screen)” value stood at 7.07 nM.
With B48, the “apparent Kd (screen)” value was 0.446 nM.
With B49, the “apparent Kd (screen)” value was 0.368 nM.
As for B50, the “apparent Kd (screen)” value is 0.446 nM.
In the case of B51, the “apparent Kd (screen)” value amounted to 9.41 nM.
With B52, the “apparent Kd (screen)” value is 1.05 nM.
As for B53, the “apparent Kd (screen)” value was 1.27 nM.
As for B54, the “apparent Kd (screen)” value was 0.956 nM.
Turning to B55, the “apparent Kd (screen)” value was determined as 4.39 nM.
